± gives the uncertainty stated by the source.
Assay: self-splicing fitness, log relative to wild type (ln ratio); higher = more splicing; Tetrahymena group I intron in knt gene, E. coli kanamycin selection, DiMSum; sequences stand for … in CUCUCU…GGAGGGAAAAGUUAUCAGGCAUGCACCUGGUAGCUAGUCUUUAAACCAAUAGAUUGCAUCGGUUUAAAAGGCAAGACCGUCAAAUUGCGGGAAAGGGGUCAACAGCCGUUCAGUACCAAGUCUCAGGGGAAACUUUGAGAUGGCCUUGCAAAGGGUAUGGUAAUAAGCUGACGGACAUGGUCCUAACCACGCAGCCAAGUCCUAAGUCAACAGAUCUUCUGUUGAUAUGGAUGCAGUUCACAGACUAAAUGUCGGUCGGGGAAGAUGUAUUCUUCUCAUAAGAUAUAGUCGGACCUCUCCUUAAUGGGAGCUAGCGGAUGAAGUGAUGCAACACUGGAGCCGCUGGGAACUAAUUUGUAUGCGAAAGUAUAUUGAUUAGUUUUGGAGUACUCGUGGUCG
Procedure, shortened: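 Fitness was computed with DiMSum as the error-weighted combination of replicate fold changes, kanamycin versus none, each normalised to wild type. The library randomised all eight intron nucleotides of the P1ex region, with the intron placed in the knt kanamycin-resistance gene on pET-22b(+) in E. coli BL21(DE3). Six replicate transformations were grown overnight at 37°C or 30°C on LB agar with or without 25 μg/mL kanamycin, plus 100 μg/mL carbenicillin, 50 μM IPTG and 0.2% rhamnose. Pooled colonies were amplicon-sequenced on an Illumina HiSeq 2500.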

Sequence | self-splicing fitness (ln) (30 °C) | self-splicing fitness (ln) (37 °C)
UCUGAGCAAUAUUACGACCG | -2.92 ± 0.4 | -2.39 ± 0.46
AUGUAGCAAUAUUACGUUAA | -3.07 ± 0.22 | -2.3 ± 0.14
CCCUAGCAAUAUUACGCUGU | -4.59 ± 0.31 | -2.63 ± 0.21
AUCUAGCAAUAUUACGUAUG | -2.41 ± 0.13 | -1.55 ± 0.17
CGAUAGCAAUAUUACGUUAA | -3.59 ± 0.21 | -1.15 ± 0.16
CUUAAGCAAUAUUACGGAUC | -1.71 ± 0.23 | -2.11 ± 0.44
AUGUAGCAAUAUUACGACUC | 0.285 ± 0.12 | 0.585 ± 0.18
UGCGAGCAAUAUUACGCACA | -1.31 ± 0.22 | -2.16 ± 0.28
ACGUAGCAAUAUUACGUUAG | -3.99 ± 0.16 | -2.13 ± 0.15
GCUAAGCAAUAUUACGAACA | -1.65 ± 0.2 | -0.907 ± 0.27
UGUGAGCAAUAUUACGAGCU | -2.7 ± 0.26 | -2.14 ± 0.41
UUCGAGCAAUAUUACGAGUG | -1.81 ± 0.17 | -0.223 ± 0.15
AGUUAGCAAUAUUACGCAGG | -2.31 ± 0.3 | -0.586 ± 0.29
CCGUAGCAAUAUUACGCAAG | -2.09 ± 0.18 | -1.46 ± 0.18
AACAAGCAAUAUUACGCGUA | -1.13 ± 0.067 | -0.921 ± 0.078
UCUCAGCAAUAUUACGCGUG | -4.26 ± 0.24 | -3.11 ± 0.21
AGUCAGCAAUAUUACGUUGA |  | -3.49 ± 0.31

Sequence | self-splicing fitness (ln) (30 °C) | self-splicing fitness (ln) (37 °C)
GGUCAGCAAUAUUACGGCGA | 0.307 ± 0.14 | 0.838 ± 0.14
GCGUAGCAAUAUUACGUUAG | -3.92 ± 0.22 | -2.47 ± 0.23
AUGAAGCAAUAUUACGGGUC | -3.75 ± 0.18 | -2.63 ± 0.23
UCGCAGCAAUAUUACGUUGG | -2.56 ± 0.11 | -2.12 ± 0.12
GCACAGCAAUAUUACGUACC | -1.47 ± 0.096 | -0.717 ± 0.13
ACCUAGCAAUAUUACGCAAA | -2.56 ± 0.3 | -1.76 ± 0.18
UUUAAGCAAUAUUACGGAGC | -1.94 ± 0.25 | -1.43 ± 0.47
UACGAGCAAUAUUACGCUCU | -1.85 ± 0.21 | 
GGUGAGCAAUAUUACGAUGU | -2.19 ± 0.15 | -1.69 ± 0.23
UCCAAGCAAUAUUACGUCUU | -3.92 ± 0.19 | -1.46 ± 0.14
CACGAGCAAUAUUACGCGAC |  | -2.76 ± 0.27
GUAGAGCAAUAUUACGAUGU | -1.04 ± 0.18 | -0.121 ± 0.19
CAACAGCAAUAUUACGUCGG | -0.576 ± 0.052 | -0.369 ± 0.065
ACAUAGCAAUAUUACGCUGA | -1.47 ± 0.093 | -0.74 ± 0.12
GAGCAGCAAUAUUACGGGAC | -2.82 ± 0.19 | -2.74 ± 0.15
AUCUAGCAAUAUUACGAUGU | -0.781 ± 0.08 | -0.0281 ± 0.11
UAAAAGCAAUAUUACGCUAU | -2.11 ± 0.15 | -2.2 ± 0.19

Reference: the supplement of paper PMC7877785
